Experimental data taken from patent publication US20030064071A1 (NEW YORK UNIVERSITY, published 2003).

Biological target: T1, M-tropic HIV-1MN envelope glycoprotein gp120 (HIV-1 (strain MN), UniProt P05877 32-513)
T1 construct: domain: gp120; also called HIV-1 gp120; HIV-1MN gp120
Assay: fluorescent bead adhesion assay, flow cytometry

B1: DC-SIGN (receptor)
chain: MSDSKEPRLQQLGLLEEEQLRGLGFRQTRGYKSLAGCLGHGPLVLQLLSFTLLAGLLVQVSKVPSSISQEQSRQDAIYQNLTQLKAAVGELSEKSKLQEIYQELTQLKAAVGELPEKSKLQEIYQELTRLKAAVGELPEKSKLQEIYQELTWLKAAVGELPEKSKMQEIYQELTRLKAAVGELPEKSKQQEIYQELTRLKAAVGELPEKSKQQEIYQELTRLKAAVGELPEKSKQQEIYQELTQLKAAVERLCHPCPWEWTFFQGNCYFMSNSQRNWHDSITACKEVGAQLVVIKSAEEQNFLQLQSSRSNRFTWMGLSDLNQEGTWQWVDGSPLLPSFKQYWNRGEPNNVGEEDCAEFSGNGWNDDKCNLAKFWICKKSAASCSRDEEQFLSPAPATPNPPPA
notes: also called THP-DC-SIGN (THP-1 transfectant)
  binding result: binds
